{"source": "patent US20020077289A1", "about": "“Angiostatin and endostatin binding proteins and methods of use” (priority 2000, published 2002)", "molecules": {"B1": {"name": "rhEndostatin: recombinant human Endostatin, antiangiogenic fragment of a C-terminal non-collagenous region of a collagen protein, produced in P. pastoris (protein)", "chain": "HSHRDFQPVLHLVALNSPLSGGMRGIRGADFQCFQQARAVGLAGTFRAFLSSRLQDLYSIVRRADRAAVPIVNLKDELLFPSWEALFSGSEGPLKPGARIFSFDGKDVLRHPTWPQKSVWHGSDPNGRRLTESYCETWRTEAPSATGQASSLLGGRLLGQSAASCHHAYIVLCIENSFMTASK"}}, "key": {"[1]": {"tested_on": "mammary tumor", "conditions": "i.v. technetium (99mTc) labeled rhEndostatin, 100 μCi/rat; personal communication; cited from earlier work"}, "[2]": {"tested_on": "B16-BL6 melanoma cells", "assay": "B16-BL6 experimental metastasis assay", "type": "in vivo, C57BL/6J mice", "protocol": "C57BL/6J mice were injected via the tail vein with 5×10^4 B16-BL6 melanoma cells on day 0. On day 3, groups of five mice received daily subcutaneous doses of either buffer control, 1.5 nmol (1.5 mg/kg/day) of rhEndostatin in combination with 0, 15, 75 or 375 nmol of control or E37 peptide, or control or E37 peptide alone for eleven days. All mice were sacrificed on day 14, and the number of pulmonary surface metastases in each animal counted. Error bars indicate standard deviation of the mean.\nC57BL/6J mice (n=8) were injected intravenously (i.v.) with 5×10^4 B16-BL6 cells/mouse. Three days later treatment commenced. 100 μl of citrate-phosphate buffer (66 mM Sodium Phosphate, 17 mM Citric acid, 59 mM NaCl pH 6.2) containing 1.5 nmol of rhEndostatin and 100 μl of PBS containing either 0, 15, 75 or 375 nmol of control or E37 peptide were mixed and injected subcutaneously (s.c.) daily for 11 days. All mice were then sacrificed, their lungs removed and the number of surface metastases counted. Results were analyzed for statistical significance using the 2-tailed Student's t-test.\nThe following experiment was conducted to determine the interaction of E37 peptide and Endostatin protein. Briefly, the B16BL6 experimental metastasis assay, as known to those of skill in the art and further described in International Patent Application number PCT/US99/11418, was performed as follows. 5×10^4 B16-BL6 cells in 200 μl of PBS were injected into C57BL/6J mice via the tail vein. Three days post injection treatment was started. The injection received by eight groups of mice were: 1) citrate phosphate/PBS buffer, 2) ^30 μg Endostatin protein (in 100 μl PBS), 3) 30 μg Endostatin protein (in 200 μl PBS), 4) 30 μg Endostatin protein plus 50 times molar excess of control peptide (in 200 μl PBS), 5) 30 μg Endostatin protein plus 250 times molar excess of control peptide (in 200 μl PBS), 6) 30 μg Endostatin protein plus 10 times molar excess of E37 peptide (in 200 μl PBS), 7) 30 μg Endostatin protein plus 50 times molar excess of E37 peptide (in 200 μl PBS), and 8) 30 μg Endostatin protein plus 250 times molar excess of E37 peptide (in 200 μl PBS). Doses were administered daily for eleven days posterior to the thoracic cavity subcutaneously. All mice were sacrificed, the lungs removed and the number of surface metastases in each animal were counted under a stereo microscope."}, "[3]": {"tested_on": "viable HUVECs", "assay": "Internalization of Alexa Fluor 488 labeled rhEndostatin by viable HUVECs", "type": "cell-based, human", "protocol": "To determine whether live endothelial cells actively internalize Endostatin protein, viable HUVECs were incubated with Alexa Fluor™ 488 labeled rhEndostatin protein. […] Internalized rhEndostatin was rapidly processed such that by 60 minutes, little if any intercellular fluorescence was detected (data not shown)."}, "[4]": {"tested_on": "wound healing", "conditions": "in vivo; cited from earlier work"}, "[5]": {"tested_on": "G-actin", "assay": "Actin polymerization light scatter assay", "type": "biochemical", "conditions": "G-actin/Endostatin nucleation complexes", "source_text": "As a result of the inventors findings, also included herein are_antiangiogenic actin-binding molecules. Though not wishing to be bound by the following theory, it is believed that since actin polymerization is affected by Endostatin it could possibly mean that Endostatin is binding to the actin component of the microfilaments, in addition to or in association with tropomyosin. […] Accordingly, molecules such as Endostatin that have an effect on actin polymerization will have an effect on microfilaments resulting in anti-angiogenic activity through modification of cell motility, and induction of cell apoptosis. Preferred embodiments of the present invention include compositions comprising proteins and chemicals that bind tropomyosin isoforms, such as hTM3. In certain embodiments, such compositions may be characterized as antiangiogenic actin-binding molecules."}, "[6]": {"assay": "Pharmacokinetics: serum rhEndostatin levels after s.c. administration", "type": "in vivo, C57BL/6J mice", "conditions": "for AUClast: sera 0.17-2 hours", "protocol": "To determine the pharmacokinetics, C57BL/6J mice (3 per time point) were dosed s.c. with 1.5 nmol of rhEndostatin alone or in combination with 375 nmol of either E37 or control peptide. Sera was collected 0.17, 0.5, 1 and 2 hours following s.c. administration. Serum drug levels were determined using an Endostatin EIA kit (Cytlmmune Sciences, College Park, Md.) according to the manufacture's instructions. Pharmacokinetic analyses of the serum concentration versus time data were performed by nonlinear least square minimization using RSTRIP (Version 4.03, MicroMath Scientific Software, Salt Lake City, Ut.).\nGroups of mice (3 mice/time point) were injected s.c. with 1.5 nmol of rhEndostatin alone or in combination with a 250-fold molar excess of either E37 or control peptide. Sera were collected at 0.17, 0.5, 1 and 2 hours following s.c. administration, and assessed for serum rhEndostatin levels as previously described (Sim et al.)"}, "[7]": {"tested_on": "primary cultures of pericytes", "assay": "Proliferation of PDGF-BB or 20% fetal calf serum stimulated pericytes (thymidine incorporation, MTT)", "type": "cell-based", "source_text": "Endostatin protein results in an inhibition of proliferation of PDGF-BB or 20% fetal calf serum stimulated primary cultures of pericytes and to a lesser extent fibroblasts. […] The results have been confirmed using a MTT proliferation kit.\nEndostatin protein tends to have a greater effect on cells in the earlier stages of differentiation. While such cells constitute a small fraction of the total number, inhibiting their proliferation may have significant effects on the final total cell number. Endostatin protein's effect on cells early in the differentiation pathway results in a reduction of 70-80% of the final cell number. Endostatin protein also changes the morphology of these cells (data not shown)."}}, "data": [{"molecule": "B1", "values": [{"measurement": "time after injection at which the tumor could be visualized", "setting": "[1]", "result": "0.5 to 4", "unit": "h"}, {"measurement": "inhibition of lung metastasis", "setting": "[2]; 1.5 nmol rhEndostatin co-administered with 250-fold molar excess of E37 peptide", "result": 11, "unit": "%"}, {"measurement": "inhibition of the formation of lung metastasis", "setting": "[2]; 30 μg Endostatin protein alone, daily s.c. for eleven days", "result": "approximately 79%"}, {"measurement": "inhibition of the formation of lung metastasis", "setting": "[2]; 30 μg Endostatin protein plus 10 fold molar excess of E37 peptide", "result": "approximately 76%"}, {"measurement": "inhibition of the formation of lung metastasis", "setting": "[2]; 30 μg Endostatin protein plus 50 fold molar excess of E37 peptide", "result": "approximately 61%"}, {"measurement": "inhibition of the formation of lung metastasis", "setting": "[2]; 30 μg Endostatin protein plus 50 fold molar excess of negative control peptide", "result": "approximately 79%"}, {"measurement": "inhibition of the formation of lung metastasis", "setting": "[2]; 30 μg Endostatin protein plus 250 fold molar excess of E37 peptide", "result": "approximately 21%"}, {"measurement": "inhibition of the formation of lung metastasis", "setting": "[2]; 30 μg Endostatin protein plus 250 fold molar excess of negative control peptide", "result": "approximately 73%"}, {"measurement": "inhibition of growth of experimental B16-BL6 lung metastases compared to buffer treated control mice", "setting": "[2]; daily 1.5 nmol rhEndostatin (1.5 mg/kg/day)", "result": "greater than 70%"}, {"measurement": "internalization by live endothelial cells", "setting": "[3]", "result": "rapidly internalized and translocated predominantly to the nucleus"}, {"measurement": "effect on wound healing", "setting": "[4]", "result": "remained unaffected"}, {"measurement": "effect on actin polymerization", "setting": "[5]", "result": "shorten the lag phase and facilitate actin polymerization"}, {"measurement": "AUClast", "setting": "[6]; 1.5 nmol rhEndostatin s.c. + 250x E37 peptide", "result": 4544, "unit": "ng·min/mL"}, {"measurement": "AUClast", "setting": "[6]; 1.5 nmol rhEndostatin s.c. + 250x control peptide", "result": 5552, "unit": "ng·min/mL"}, {"measurement": "AUClast", "setting": "[6]; 1.5 nmol rhEndostatin s.c. alone", "result": 5370, "unit": "ng·min/mL"}, {"measurement": "AUClast relative to rhEndostatin alone or with 375 nmol control peptide", "setting": "[6]; 1.5 nmol rhEndostatin s.c. co-administered with 250-fold molar excess of E37 peptide", "result": 85, "unit": "%"}, {"measurement": "differentiation of pericytes to fibroblasts", "setting": "[7]", "result": "does not appear to affect"}, {"measurement": "reduction of the final cell number", "setting": "[7]; effect on cells early in the pericyte/fibroblast differentiation pathway", "result": "70-80%"}, {"measurement": "thymidine incorporation into primary cultures of pericytes", "setting": "[7]; stimulated with PDGF-BB or 20% fetal calf serum", "result": "consistent reduction in thymidine incorporation"}]}]}
